Where no end group is shown, it is not given here. Me3 = trimethyl-lysine; Me2 = dimethyl-lysine
Columns and labels:
GST-fused CONSTANS (CO) = biological target: T1, GST-fused CONSTANS (CO) (Arabidopsis thaliana, UniProt Q39057 1-373); test: pull-down; GST-fused CO (or GST alone) with His-tagged MRG2, MRG2C or MRG2N, purified from E. coli; protocol of ref. 51; details: both partners purified
T1 construct: Arabidopsis transcription factor CONSTANS (CO); CO cDNA amplified with primers CO-1/CO-2; also called GST-CO; source: E. coli, pGEX-4T-1, purified
T1 sequence (looked up): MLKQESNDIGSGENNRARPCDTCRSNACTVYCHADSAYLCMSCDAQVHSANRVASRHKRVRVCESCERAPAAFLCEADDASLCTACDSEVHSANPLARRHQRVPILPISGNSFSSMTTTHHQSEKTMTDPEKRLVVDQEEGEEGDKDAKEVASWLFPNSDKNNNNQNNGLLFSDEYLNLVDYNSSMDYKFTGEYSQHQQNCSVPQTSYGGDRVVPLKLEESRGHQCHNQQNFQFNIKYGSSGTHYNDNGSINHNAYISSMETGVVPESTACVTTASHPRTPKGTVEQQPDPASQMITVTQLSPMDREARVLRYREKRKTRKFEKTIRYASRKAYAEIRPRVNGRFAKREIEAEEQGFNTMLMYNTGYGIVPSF

[1] = biological target: T2, MRG2 chromodomain (residues 41-123) (Arabidopsis thaliana, UniProt Q4V3E2 41-123); test: ITC; 25 C, MicroCal iTC200; 50 mM Tris pH 8.0, 100 mM NaCl; 0.2-0.4 mM protein in the cell, 2-4 mM peptide injected in 2 ul aliquots (20 injections); one-site model; details: both partners purified
T2 construct: Arabidopsis thaliana MRG2 chromodomain, residues 41-123; Construct of the ITC; source: cloned into pET28-SMT3, purified, tag removed
T2 sequence (looked up): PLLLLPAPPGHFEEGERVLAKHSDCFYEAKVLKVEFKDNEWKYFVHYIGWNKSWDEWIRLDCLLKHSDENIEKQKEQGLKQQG

B1: His-tagged MRG2 (natural protein, Arabidopsis thaliana, UniProt Q4V3E2 1-327, looked up)
chain: MGSPNAAAETDLTTDDFIGDTRRDSGSDTETNTDCDGEDLPLLLLPAPPGHFEEGERVLAKHSDCFYEAKVLKVEFKDNEWKYFVHYIGWNKSWDEWIRLDCLLKHSDENIEKQKEQGLKQQGIKSAMAWKVSKMKPRSPNVARGRKRKQDSVDTEKNVLPSDNLLSFNIPPALRKQLLDDFEFVTQMQKLVQLPRSPNVDGILKKYIDSQMKKHGRVTDSLEEILKGLRCYFDKALPVMLLYNNERKQYEESVSGGVSPSTVYGAEHLLRLFVKLPELLVHVNMAEETLKELQDNFVDILRFLRKNQSVLFVSTYKAVEEMEKKEG
notes: Arabidopsis MRG2 cDNA amplified with primers MRG2-1/MRG2-10; MRG2-1 is the forward primer of MRG2N (cDNA from nucleotide 1) and MRG2-10 the reverse primer of MRG2C (cDNA to nucleotide 984); also called MRG2 tagged with multiple His residues; His-MRG2; source: E. coli, pET-30a, purified (His tag)
- binding result (GST-fused CONSTANS (CO)): binds

Binder: KQTARK(Me3)STGG [H3K9me3 peptide (residues 4-13)]
- Kd [1]: 1200 µM

Binder: ARTK(Me2)QTARK [H3K4me2 peptide (residues 1-9)]
- Kd [1]: 2400 µM

Binder: KAARK(Me3)SAPA [H3K27me3 peptide (residues 23-31)]
- Kd [1]: 2500 µM

B2: His-tagged MRG2C (MRG domain of MRG2) (domain or fragment, Arabidopsis thaliana, UniProt Q4V3E2 148-327, looked up)
chain: RKQDSVDTEKNVLPSDNLLSFNIPPALRKQLLDDFEFVTQMQKLVQLPRSPNVDGILKKYIDSQMKKHGRVTDSLEEILKGLRCYFDKALPVMLLYNNERKQYEESVSGGVSPSTVYGAEHLLRLFVKLPELLVHVNMAEETLKELQDNFVDILRFLRKNQSVLFVSTYKAVEEMEKKEG
notes: Arabidopsis MRG2; MRG2C is cDNA 442-984, which are nucleotides, i.e. from residue 148 to the C-terminus; holds the MRG domain; source: E. coli, pET-30a, purified (His tag)
- binding result (GST-fused CONSTANS (CO)): binds
